In the supplement of paper PMC7125110:
± gives the standard error. Fewer inactive variants are shown than the library holds.

B1: glmS ribozyme (parent)
chain: AUAAAAGCGCCAGAACUACAGAAAUGUAGUUGACGAGGAGGAGGUUUAUCGAAUUUUCGGCGGAUGCCUCCAAA

Variants of: B1
Assay: self-cleavage kobs at 2500 uM GlcN6P; higher = faster cleavage; RNA array
Settings: with glucosamine-6-phosphate
In short: (§1)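 Barcoded ribozyme variants were transcribed in situ on sequenced MiSeq chips by E. coli RNA polymerase. At 37 °C, a hybridised Cy3 probe tracked them while glucosamine-6-phosphate (40 μM to 10 mM) in HEPES/KCl/Mg(OAc)2 buffer flowed in and tiles were imaged over ~14 h. Per-tile medians of signals normalised to baseline and to non-cleaving reference variants were fit to one- or two-exponential decays, giving kobs. kcat and KM came from weighted Michaelis–Menten fits across concentrations.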
For AUAAAAGCGCCAAAACUACAGAAAUGUAGUUGACGAGGACGAGGUUUAUCGAAUUUUCGACGGAAGCCUCCAAA [G13A G40C G60A U65A], the “self-cleavage kobs at 2500 uM GlcN6P” value was < 1e-05 s⁻¹.
AUAAAAGCGCCAGCACUACAGAAAUGUACUUGACGAGGAGGAGCUUUAGCGAAUUUUCCGCGGAUGCCUCUAAA [A14C G29C G44C U49G G59C C71U] was tested, and the “self-cleavage kobs at 2500 uM GlcN6P” value was < 1e-05 s⁻¹.
With AUAAAAGCGCCAGCACUACAGAAAUGUAGUUGACGAGGAGGAGGUUUAUAGAACUUUCGGCGGAUGCCUCCAAA [A14C C50A U54C] the “self-cleavage kobs at 2500 uM GlcN6P” value was < 1e-05 s⁻¹.
For AUAAAAGCGCCUGAACUACAGAAAUGUAGUGGACGAGGAGGAGGUUUAUCGAAUUAUCGGCGGAUGCCUCCAAA [A12U U31G U56A], the “self-cleavage kobs at 2500 uM GlcN6P” value was 0.00599 ± 0.0012 s⁻¹.
In the case of AUAAAAGCGCCAAAACUACAGAAAUGUAGUUGACGAGGAGGAGGUUUAUCGCAUUUUCGACGGAUGCCUCCAAA [G13A A52C G60A], the “self-cleavage kobs at 2500 uM GlcN6P” value is reported as < 1e-05 s⁻¹.
AUAAAAGCGCCACAACUACAGAAAUGUAGUUGACUAGGAGGAGGUUUAUCGCAUUUUCGGCGGAUGCCUCCAAA [G13C G35U A52C] was tested, and the “self-cleavage kobs at 2500 uM GlcN6P” value was < 1e-05 s⁻¹.
For AUAAAAGCGCCAUAACUACAGAAAUGUAUUUGACGAGGAGGAGGUUUAUCGAAGUUUCGGCGGAUGCCUCCAAA [G13U G29U U54G], the “self-cleavage kobs at 2500 uM GlcN6P” value was 8.58e-05 ± 2.4e-05 s⁻¹.
For AUAAAAGCGCCAAAAUUACAGAAAUGUAUUUGACGAGGAGGAGGUUUAUCGAAUUUUCGGCGGAUGCCUCCAAA [G13A C16U G29U], the “self-cleavage kobs at 2500 uM GlcN6P” value was 5.93e-05 ± 2e-05 s⁻¹.
AUAAAAGCGCCAGCAAUACAGAAAUGUAGUUGACGAGGAGGGGGUUUAUCGAAUUUUCGGCGGAUGCCUCCAAA [A14C C16A A42G] was tested, and the “self-cleavage kobs at 2500 uM GlcN6P” value was 5.08e-05 ± 2e-05 s⁻¹.
For AUAAAAGCGCCAUAACUACAGAAAUGUAGUUGACGAGGGGGAGGUUUAUCGAAUUUUCGGCGGAUGCCUCAAAA [G13U A39G C71A], the “self-cleavage kobs at 2500 uM GlcN6P” value was 0.000144 ± 4.9e-05 s⁻¹.
For AUAAAAGCGCCUGAACUACAGAAAUGUAGUUGACGAGGAGGAGGUUUAUCGAAUUAUCGGCGGAUGCAUCCAAA [A12U U56A C68A], the “self-cleavage kobs at 2500 uM GlcN6P” value was 6.47e-05 ± 1.9e-05 s⁻¹.
AUAAAAGCGCCAUAACUACAGAAAUGUAGUUGACGAGGAGGAGGUUUAUCGAAUAUUAGGCGGAUGCCUCCAAA [G13U U55A C58A] was tested, and the “self-cleavage kobs at 2500 uM GlcN6P” value was 0.001 ± 0.00012 s⁻¹.
In the case of AUAAAAGCGCCAAAACUACAGAAAUGUAGUUGACGAGGAGGAGGUUUAUCGAAUUUUCGGCGGCUGCCUCUAAA [G13A A64C C71U], the “self-cleavage kobs at 2500 uM GlcN6P” value is reported as < 1e-05 s⁻¹.
In the case of AUAAAAGCGCCUGAACUACAGAAAUGUAGUUGACGAGGAGGAGGUUUAUCGAAAUUUCGCCGGAAGCCUCCAAA [A12U U54A G60C U65A], the “self-cleavage kobs at 2500 uM GlcN6P” value is reported as < 1e-05 s⁻¹.
AUAAAAGCGCCACAACUACAGAAAUGUAGUUGACGAGGAGGAGGUUUAUCGAAUAUUCGGCGGAUGCCUCCAAA [G13C U55A] was tested, and the “self-cleavage kobs at 2500 uM GlcN6P” value was 6.85e-05 ± 1.6e-05 s⁻¹.
With AUAAAAGCGCCAAAACUACAGAAAUGUAGUUGACGAGGAGGAAGUUUACCGAAUUUUAGGCGGAUGCCUCCAAA [G13A G43A U49C C58A] the “self-cleavage kobs at 2500 uM GlcN6P” value was < 1e-05 s⁻¹.
In the case of AUAAAAGCGCCAGCACUACAGAAAUGUAGUUGACGAGGAGGGUGUUUAUCGAAUUUUCGGCGGAUGCCUACAAA [A14C A42G G43U C70A], the “self-cleavage kobs at 2500 uM GlcN6P” value is reported as < 1e-05 s⁻¹.
In the case of AUAAAAGCGCCAAAACUACAGAAAUGUAGUGGACGGGGAGGAGGUUUAUCGAAUUUUCGGCGGAUGCCUCCAAA [G13A U31G A36G], the “self-cleavage kobs at 2500 uM GlcN6P” value is reported as < 1e-05 s⁻¹.
AUAAAAGCGCCAAAACUACAGAAAUGUAGGUGACGAGGAGGAGGUUUAUCGAAUUAUCGGCGGAUGCCUCCAAA [G13A U30G U56A] was tested, and the “self-cleavage kobs at 2500 uM GlcN6P” value was 7.43e-05 ± 2.5e-05 s⁻¹.
With AUAAAAGCGCCACAACUACAGAAAUGUAGUUGAGGAGGAGGAGGUUUACCGAAUUUUCGGCGGAUGCCUCAAAA [G13C C34G U49C C71A] the “self-cleavage kobs at 2500 uM GlcN6P” value was < 1e-05 s⁻¹.
For AUAAAAGCGCCAAAACUACAGAAAUGUAGUUGACGAGGAGGAGUUUUAUCGAAUUUUCGGCGGUUGCCUCCAAA [G13A G44U A64U], the “self-cleavage kobs at 2500 uM GlcN6P” value was < 1e-05 s⁻¹.
With AUAAAAGCGCCAGCCCUACAGAAAUGUAGUUGACGUUGAGGAGGUUUAACGAAUUUUCGGCGGAUGCCUCCAAA [A14C A15C A36U G37U U49A] the “self-cleavage kobs at 2500 uM GlcN6P” value was < 1e-05 s⁻¹.
In the case of AUAAAAGCGCCAGCACUACAGAAAUGUAGUUGACGAGGUGUAGGUUUAUCGAAUUUUCGGCGGAGGCCUCCAAA [A14C A39U G41U U65G], the “self-cleavage kobs at 2500 uM GlcN6P” value is reported as < 1e-05 s⁻¹.
AUAAAAGCGCCAGCACUACAGAAAUGUAGUUGCCGAGGAGGAGGUUUAACGAAUUUUCGGCGGAUCCCUCCAAA [A14C A33C U49A G66C] was tested, and the “self-cleavage kobs at 2500 uM GlcN6P” value was < 1e-05 s⁻¹.
AUAAAAGCGCCACAGCUACAGAAAUGUAGUUGACGAGGAGGAGGUUUAUCGAAUUUUAGGCGGAUGCCUCCAAA [G13C A15G C58A] was tested, and the “self-cleavage kobs at 2500 uM GlcN6P” value was 5.1e-05 ± 1.5e-05 s⁻¹.
With AUAAAAGCGCCAUAACUACAGAAAUGUAGUUGACGAGGAGGUGGUUUAUUGAAUUUUCGGCGGAUGCCUCCAAA [G13U A42U C50U] the “self-cleavage kobs at 2500 uM GlcN6P” value was < 1e-05 s⁻¹.
With AUAAAAGCGCCUGAACUACAGAAAUGUAGUGGACGAGGAGGAGGUUUAUCGAAUUUUCGGCGGAUGCCACCAAA [A12U U31G U69A] the “self-cleavage kobs at 2500 uM GlcN6P” value was 0.000111 ± 4.9e-05 s⁻¹.
AUAAAAGCGCCAAAACUACAGAAAUGUAGUUGUCGAGGAGGAGGUUUAUCGACUUUUCGGCGGAUGCCUCCAAA [G13A A33U A53C] was tested, and the “self-cleavage kobs at 2500 uM GlcN6P” value was < 1e-05 s⁻¹.
In the case of AUAAAAGCGCCAUCACUACAGAAAUGUAGUUUACGAGGAGGAGGUUUAUCGAAUUUUCGGGGGAUGCCUCCAAA [G13U A14C G32U C61G], the “self-cleavage kobs at 2500 uM GlcN6P” value is reported as < 1e-05 s⁻¹.
For AUAAAAGCGCCAUAACUACAGAAAUGUAGUUGACGAGGAGGAGGUUAAUUGAAUUUUCGGCGGAUGCCUCCAAA [G13U U47A C50U], the “self-cleavage kobs at 2500 uM GlcN6P” value was < 1e-05 s⁻¹.
AUAAAAGCGCCAGCACUACAUAAAUUUAGUUGACGCGGAGGAGGUUUAUCGAAUUUUCGGCGGAUGCCUCCAAA [A14C G21U G26U A36C] was tested, and the “self-cleavage kobs at 2500 uM GlcN6P” value was < 1e-05 s⁻¹.
In the case of AUAAAAGCGCCAUAACUACAGAAAUGUAGUUGACGAGGAGGAGGUUUAUCGAAUUUUCGGCGGAUACCUCCAAA [G13U G66A], the “self-cleavage kobs at 2500 uM GlcN6P” value is reported as 0.000499 ± 0.0001 s⁻¹.

Variants of: B1
Assay: self-cleavage kobs at 10000 uM GlcN6P; higher = faster cleavage; RNA array
Settings: with glucosamine-6-phosphate
In short: as §1
For AUAAAAGCGCCAUAACUACAGAAAUGUAGUUGACGAGGGGGAGGUUUAUCGAAUUUUCGGCGGAUGCCUCAAAA [G13U A39G C71A], the “self-cleavage kobs at 10000 uM GlcN6P” value was 0.000285 ± 6.4e-05 s⁻¹.
For AUAAAAGCGCCAGCACUACAGAAAUGUAGUUGACGAGGUGUAGGUUUAUCGAAUUUUCGGCGGAGGCCUCCAAA [A14C A39U G41U U65G], the “self-cleavage kobs at 10000 uM GlcN6P” value was < 1e-05 s⁻¹.
In the case of AUAAAAGCGCCACAGCUACAGAAAUGUAGUUGACGAGGAGGAGGUUUAUCGAAUUUUAGGCGGAUGCCUCCAAA [G13C A15G C58A], the “self-cleavage kobs at 10000 uM GlcN6P” value is reported as 0.000154 ± 2.6e-05 s⁻¹.
AUAAAAGCGCCAUAACUACAGAAAUGUAGUUGACGAGGAGGUGGUUUAUUGAAUUUUCGGCGGAUGCCUCCAAA [G13U A42U C50U] was tested, and the “self-cleavage kobs at 10000 uM GlcN6P” value was < 1e-05 s⁻¹.
For AUAAAAGCGCCAUAACUACAGAAAUGUAGUUGACGAGGAGGAGGUUUAUCGAAUUUUCGGCGGAUACCUCCAAA [G13U G66A], the “self-cleavage kobs at 10000 uM GlcN6P” value was 0.000729 ± 0.00013 s⁻¹.
